In patent US20150152171, “Modulation of TLR4-Signaling Pathway” (Rheinisch-Westfalische Technische, published 2015):

Target: hnRNP K full-length (463 aa) (UniProt P61978 P61978:1-463)
Experiment: competition; 2R competes hnRNP K binding to TAK1 fragments 3, 5.1 and Akt2 fragments 1, 2
Conditions: tags: His
Experimental: To analyze whether recombinant hnRNP K directly interacts with the Akt2 mRNA 3′UTR, UV-crosslinking experiments were performed with the [³²P]-labeled Akt2 mRNA 3′UTR subdivided in two fragments (1 and 2) (FIG. 19, lanes 1-5 and 6-10). Recombinant hnRNP K was bound strongly to both fragments (FIG. 19, lanes 1 and 6) and to the DICE, but not to the TAK1 mRNA 3′UTR fragment 4 that served as negative control (FIG. 19, lanes 11 and 12). Furthermore, it was investigated whether the short RNA consisting of 2 repeats of the DICE (2R) can be used to compete the binding of hnRNP K to the Akt2 mRNA 3′UTR fragments 1 and 2.

CCCCACCCUCUUCCCCAAGCCCCACCCUCUUCCCCAAG (ssRNA) [2R (two DICE repeats, 38 nt)]
binding result: binds
